Results reported in article PMC3769244.

Experiment: immunofluorescence, data not shown
Conditions: glycan lost; control: untreated

B1: CLN5: tunicamycin (protein)
parent chain: MAQEVDTAQGAEMRRGAGAARGRASWCWALALLWLAVVPGWSRVSGIPSRRHWPVPYKRFDFRPKPDPYCQAKYTFCPTGSPIPVMEGDDDIEVFRLQAPVWEFKYGDLLGHLKIMHDAIGFRSTLTGKNYTMEWYELFQLGNCTFPHLRPEMDAPFWCNQGAACFFEGIDDVHWKENGTLVQVATISGNMFNQMAKWVKQDNETGIYYETWNVKASPEKGAETWFDSYDCSKFVLRTFNKLAEFGAEFKNIETNYTRIFLYSGEPTYLGNETSVFGPTGNKTLGLAIKRFYYPFKPHLPTKEFLLSLLQIFDAVIVHKQFYLFYNFEYWFLPMKFPFIKITYEEIPLPIRNKTLSGL
Q: With B1 as the protein, how does the localisation_or_trafficking read?
A: changes
